B1: I283T-N285P-N287T-Q290E-S322T-N388M-K394R-C430A-L432F-L434W-S436N-H444F-dG462 (protein)
chain: MFLKSLREQINLLKRQGDLRIINRPVDSYLEAAAIIRRSTETKAPVPLMTNIKGYPGCSIVGGLAALSSNPEYPLSRVAMSLGLSTTASAQSIVQYLIDGLKKTPYLPVEIDSNSAPCKQNILRGEDASLAHFPIPQVHQHDGNRYVNTWGVFIVESPDGQWCNWSIQRVQYLNDRQMIALVFPSQHISDIWEEWVKIGKPMPYALVQGCEPIVPYIAGLPLLERNVNEAEYIGALYGKGIEVVKCETHDLRVPASSEVVIEGYFAITREGVEGPFGEFAGYTPPETSLEPILSITAISWQDDPIWPVVAEGKPVDEYHTCTGIGDAAAIQNVLLTANLPVSFVWVPLYSACHLMIVSINRHWRQTHPDLTSEQLTKKVGDVIHQTRMSIKLPRIVVLDDDVDPADTESLLWALATRIHPERKRYFYESAIFPWLNCYSEEERFNRKGKRVIIDALLPENHGAISSFDYAYPDDIKQRVLMHWETDFSHD
B2: I283T-N285P-N287T-Q290E-S322T-N388M-K394R-C430A-L432F-L434W-S436N-dG462-A463F (protein)
chain: MFLKSLREQINLLKRQGDLRIINRPVDSYLEAAAIIRRSTETKAPVPLMTNIKGYPGCSIVGGLAALSSNPEYPLSRVAMSLGLSTTASAQSIVQYLIDGLKKTPYLPVEIDSNSAPCKQNILRGEDASLAHFPIPQVHQHDGNRYVNTWGVFIVESPDGQWCNWSIQRVQYLNDRQMIALVFPSQHISDIWEEWVKIGKPMPYALVQGCEPIVPYIAGLPLLERNVNEAEYIGALYGKGIEVVKCETHDLRVPASSEVVIEGYFAITREGVEGPFGEFAGYTPPETSLEPILSITAISWQDDPIWPVVAEGKPVDEYHTCTGIGDAAAIQNVLLTANLPVSFVWVPLYSACHLMIVSINRHWRQTHPDLTSEQLTKKVGDVIHQTRMSIKLPRIVVLDDDVDPADTESLLWALATRIHPERKRYFYESAIFPWLNCYSEEERHNRKGKRVIIDALLPENHGFISSFDYAYPDDIKQRVLMHWETDFSHD
B3: I283T-N285P-N287T-Q290E-S322T-N388M-K394R-C430A-L432F-L434W-S436N-dG462-A470S (protein)
chain: MFLKSLREQINLLKRQGDLRIINRPVDSYLEAAAIIRRSTETKAPVPLMTNIKGYPGCSIVGGLAALSSNPEYPLSRVAMSLGLSTTASAQSIVQYLIDGLKKTPYLPVEIDSNSAPCKQNILRGEDASLAHFPIPQVHQHDGNRYVNTWGVFIVESPDGQWCNWSIQRVQYLNDRQMIALVFPSQHISDIWEEWVKIGKPMPYALVQGCEPIVPYIAGLPLLERNVNEAEYIGALYGKGIEVVKCETHDLRVPASSEVVIEGYFAITREGVEGPFGEFAGYTPPETSLEPILSITAISWQDDPIWPVVAEGKPVDEYHTCTGIGDAAAIQNVLLTANLPVSFVWVPLYSACHLMIVSINRHWRQTHPDLTSEQLTKKVGDVIHQTRMSIKLPRIVVLDDDVDPADTESLLWALATRIHPERKRYFYESAIFPWLNCYSEEERHNRKGKRVIIDALLPENHGAISSFDYSYPDDIKQRVLMHWETDFSHD
B4: N287R-N388M-K394R-C430N-L432F-L434W-S436N (protein)
chain: MFLKSLREQINLLKRQGDLRIINRPVDSYLEAAAIIRRSTETKAPVPLMTNIKGYPGCSIVGGLAALSSNPEYPLSRVAMSLGLSTTASAQSIVQYLIDGLKKTPYLPVEIDSNSAPCKQNILRGEDASLAHFPIPQVHQHDGNRYVNTWGVFIVESPDGQWCNWSIQRVQYLNDRQMIALVFPSQHISDIWEEWVKIGKPMPYALVQGCEPIVPYIAGLPLLERNVNEAEYIGALYGKGIEVVKCETHDLRVPASSEVVIEGYFAITREGVEGPFGEFAGYIPNERSLQPILSITAISWQDDPIWPVVAEGKPVDEYHTCSGIGDAAAIQNVLLTANLPVSFVWVPLYSACHLMIVSINRHWRQTHPDLTSEQLTKKVGDVIHQTRMSIKLPRIVVLDDDVDPADTESLLWALATRIHPERKRYFYESNIFPWLNCYSEEERHNRKGKRVIIDALLPENHGAISSFDYAYPDDIKQRVLMHWETDFSHD
B5: I283T-N285P-N287T-Q290E-S322T-N388M-K394R-C430A-L432F-L434W-S436N-dG462-A463V (protein)
chain: MFLKSLREQINLLKRQGDLRIINRPVDSYLEAAAIIRRSTETKAPVPLMTNIKGYPGCSIVGGLAALSSNPEYPLSRVAMSLGLSTTASAQSIVQYLIDGLKKTPYLPVEIDSNSAPCKQNILRGEDASLAHFPIPQVHQHDGNRYVNTWGVFIVESPDGQWCNWSIQRVQYLNDRQMIALVFPSQHISDIWEEWVKIGKPMPYALVQGCEPIVPYIAGLPLLERNVNEAEYIGALYGKGIEVVKCETHDLRVPASSEVVIEGYFAITREGVEGPFGEFAGYTPPETSLEPILSITAISWQDDPIWPVVAEGKPVDEYHTCTGIGDAAAIQNVLLTANLPVSFVWVPLYSACHLMIVSINRHWRQTHPDLTSEQLTKKVGDVIHQTRMSIKLPRIVVLDDDVDPADTESLLWALATRIHPERKRYFYESAIFPWLNCYSEEERHNRKGKRVIIDALLPENHGVISSFDYAYPDDIKQRVLMHWETDFSHD
B6: I283T-N285P-N287T-Q290E-S322T-N388M-K394R-R422D-C430A-L432F-L434W-S436N-dG462 (protein)
chain: MFLKSLREQINLLKRQGDLRIINRPVDSYLEAAAIIRRSTETKAPVPLMTNIKGYPGCSIVGGLAALSSNPEYPLSRVAMSLGLSTTASAQSIVQYLIDGLKKTPYLPVEIDSNSAPCKQNILRGEDASLAHFPIPQVHQHDGNRYVNTWGVFIVESPDGQWCNWSIQRVQYLNDRQMIALVFPSQHISDIWEEWVKIGKPMPYALVQGCEPIVPYIAGLPLLERNVNEAEYIGALYGKGIEVVKCETHDLRVPASSEVVIEGYFAITREGVEGPFGEFAGYTPPETSLEPILSITAISWQDDPIWPVVAEGKPVDEYHTCTGIGDAAAIQNVLLTANLPVSFVWVPLYSACHLMIVSINRHWRQTHPDLTSEQLTKKVGDVIHQTRMSIKLPRIVVLDDDVDPADTESLLWALATRIHPEDKRYFYESAIFPWLNCYSEEERHNRKGKRVIIDALLPENHGAISSFDYAYPDDIKQRVLMHWETDFSHD
B7: I283T-N285P-N287T-Q290E-S322T-N388M-K394R-C430A-L432F-L434W-S436N-N460G-dG462 (protein)
chain: MFLKSLREQINLLKRQGDLRIINRPVDSYLEAAAIIRRSTETKAPVPLMTNIKGYPGCSIVGGLAALSSNPEYPLSRVAMSLGLSTTASAQSIVQYLIDGLKKTPYLPVEIDSNSAPCKQNILRGEDASLAHFPIPQVHQHDGNRYVNTWGVFIVESPDGQWCNWSIQRVQYLNDRQMIALVFPSQHISDIWEEWVKIGKPMPYALVQGCEPIVPYIAGLPLLERNVNEAEYIGALYGKGIEVVKCETHDLRVPASSEVVIEGYFAITREGVEGPFGEFAGYTPPETSLEPILSITAISWQDDPIWPVVAEGKPVDEYHTCTGIGDAAAIQNVLLTANLPVSFVWVPLYSACHLMIVSINRHWRQTHPDLTSEQLTKKVGDVIHQTRMSIKLPRIVVLDDDVDPADTESLLWALATRIHPERKRYFYESAIFPWLNCYSEEERHNRKGKRVIIDALLPEGHGAISSFDYAYPDDIKQRVLMHWETDFSHD

These molecules were tested on 3-methylcrotonic acid.
Assay type: biochemical, Yersinia frederiksenii
Parameters: key: “+” representing a low increase in activity; “++++” representing a high increase in activity
For B1, the “Activity relative to WT” value was “++++”.
In the case of B2, the “Activity relative to WT” value is reported as “++++”.
With B3 the “Activity relative to WT” value was “++++”.
In the case of B4, the “Activity relative to WT” value is reported as “+”.
B5 was tested, and the “Activity relative to WT” value was “++++”.
B6 was tested, and the “Activity relative to WT” value was “++++”.
With B7 the “Activity relative to WT” value was “++++”.

— patent publication US20250327097A1, “ORGANISMS PRODUCING LESS CROTONIC ACID” (Global Bioenergies, priority 2021, published 2025)
